These results are taken from patent publication US20250186580A1 (TRIDEM BIOSCIENCE, published 2025).

This assay has as its target ActHIB, Haemophilus influenzae type b capsular polysaccharide (PRP) tetanus toxoid conjugate, withou (UniProt P04958 2-1315). The assay can be described thus: competitive ELISA, soluble murine Fc-dectin-1a on coated glucan.

B1: soluble murine Fc-dectin-1a receptor (InvivoGen) (Fc fusion)
chain: EYGHNSGRNPEEKDNFLSRNKENHKPTESSLDEKVAPSKASQTTGGFSQPCLPNWIMHGKSCYLFSFSGNSWYGSKRHCSQLGAHLLKIDNSKEFEFIESQTSSHRINAFWIGLSRNQSEGPWFWEDGSAFFPNSFQVRNTAPQESLLHNCVWIHGSEVYNQICNTSSYSICEKEL
As to B1, the binding result is “no binding”.
